Positions count from the first letter of the chain named. In names and notes the source's numbering stands.
Legend:
[1] = target: FleR 1-473 (UniProt Q9I4N3); experiment: small-angle X-ray scattering; conditions: reference: non-phosphorylated FleR D53A; sites D53
[2] = target: FleR 1-473 (UniProt Q9I4N3); experiment: dynamic light scattering; conditions: reference: wild type FleRFL, acetyl phosphate treated; sites D53
[3] = target: the molecule itself; experiment: cross-linking
[4] = target: the molecule itself; experiment: SAXS

FleR 1-473 (from UniProt Q9I4N3) acetyl phosphate-phosphorylated FleR S150F
other: SAXS molecular mass (Bayesian inference) [1]: stronger; reference 113650

FleR 1-473 (from UniProt Q9I4N3) FleR D53A, acetyl phosphate treated
other: hydrodynamic diameter [2]: weaker; reference 23.17 ± 0.58

B1: DNA-binding domain of FleR (FleRDBD, residues 412-473) (domain or fragment, Pseudomonas aeruginosa (PAO1 strain), UniProt Q9I4N3 412-473, looked up)
chain: SGALGDDLRRREFQVIIDTLRTERGRRKEAAERLGISPRTLRYKLAQMRDAGMDVEAYLYAI
stoichiometry N [3]: 2

B2: FleR D53A, non-phosphorylated, full length (natural protein, Pseudomonas aeruginosa (PAO1 strain), UniProt Q9I4N3 1-473, looked up)
chain: MAAKVLLVEDDRALREALSDTLLLGGHEFVAVDSAEAALPVLAREAFSLVISAVNMPGMDGHQLLGLIRTRYPHLPVLLMTAYGAVDRAVEAMRQGAADYLVKPFEARALLDLVARHALGQLPGSEEDGPVALEPASRQLLELAARVARSDSTVLISGESGTGKEVLANYIHQQSPRAGKPFIAINCAAIPDNMLEATLFGHEKGSFTGAIAAQPGKFELADGGTILLDEISEMPLGLQAKLLRVLQEREVERVGARKPINLDIRVLATTNRDLAAEVAAGRFREDLYYRLSVFPLAWRPLRERPADILPLAERLLRKHSRKMNLGAVALGPEAAQCLVRHAWPGNVRELDNAIQRALILQQGGLIQPADLCLTAPIGMPLAAPVPVPMPAMPPATPPSVEIPSPAAGQDASGALGDDLRRREFQVIIDTLRTERGRRKEAAERLGISPRTLRYKLAQMRDAGMDVEAYLYAI
stoichiometry N [4]: 2

B3: FleR S150F, full length, phosphorylated with acetyl phosphate (natural protein, Pseudomonas aeruginosa (PAO1 strain), UniProt Q9I4N3 1-473, looked up)
chain: B2 chain with A53D, S150F
modifications: phosphorylated by acetyl phosphate (site D53)
stoichiometry N [4]: 7

— paper PMC10696123 (iScience, 2023)
